According to patent US20230301998A1 (SANFORD BURNHAM PREBYS MEDICAL DISCOVERY INSTITUTE, published 2023):

Assays:
Experiment in all cases: Flag IP of Flag-SHARPIN from WM115 lysate, on-bead tryptic digestion, LC/MS-MS
MYH10 = molecular target: T1, MYH10 (human, UniProt P35580 1-1976, limits assumed)
T1 construct: endogenous protein co-purified from WM115 lysate
Procedure, shortened: (§1)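 WM115 cells transfected with Flag-SHARPIN or empty plasmid; lysed in 1% Triton X-100 buffer (50 mM Tris-HCl pH7.4, 150 mM NaCl, 1 mM EDTA). Lysates pre-cleared 1 h at 4° C, immunoprecipitated on FLAG-M2 agarose overnight at 4° C, washed, then digested with trypsin on-bead for mass spectrometry.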

PRPF31 = molecular target: T2, PRPF31 (human, UniProt Q8WWY3 1-499)
T2 sequence (looked up): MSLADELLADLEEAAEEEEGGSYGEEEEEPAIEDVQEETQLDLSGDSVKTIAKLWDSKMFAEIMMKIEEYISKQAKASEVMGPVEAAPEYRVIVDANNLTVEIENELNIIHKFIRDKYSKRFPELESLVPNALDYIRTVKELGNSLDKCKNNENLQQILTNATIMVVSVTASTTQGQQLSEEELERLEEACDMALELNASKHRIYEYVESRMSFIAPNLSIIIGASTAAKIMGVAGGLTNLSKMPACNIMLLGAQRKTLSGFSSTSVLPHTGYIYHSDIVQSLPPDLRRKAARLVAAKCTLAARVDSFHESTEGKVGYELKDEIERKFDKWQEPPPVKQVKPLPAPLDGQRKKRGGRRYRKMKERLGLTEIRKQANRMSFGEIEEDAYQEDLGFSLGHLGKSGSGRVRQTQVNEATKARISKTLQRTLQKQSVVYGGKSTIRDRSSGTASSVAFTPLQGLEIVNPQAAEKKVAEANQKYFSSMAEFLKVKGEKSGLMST
Procedure, shortened: as §1

[1] = molecular target: T3, Gamma-interferon-inducible protein 16 (IFI16) (human, UniProt Q16666 1-785)
T3 construct: Endogenous protein in WM115 / A375
T3 sequence: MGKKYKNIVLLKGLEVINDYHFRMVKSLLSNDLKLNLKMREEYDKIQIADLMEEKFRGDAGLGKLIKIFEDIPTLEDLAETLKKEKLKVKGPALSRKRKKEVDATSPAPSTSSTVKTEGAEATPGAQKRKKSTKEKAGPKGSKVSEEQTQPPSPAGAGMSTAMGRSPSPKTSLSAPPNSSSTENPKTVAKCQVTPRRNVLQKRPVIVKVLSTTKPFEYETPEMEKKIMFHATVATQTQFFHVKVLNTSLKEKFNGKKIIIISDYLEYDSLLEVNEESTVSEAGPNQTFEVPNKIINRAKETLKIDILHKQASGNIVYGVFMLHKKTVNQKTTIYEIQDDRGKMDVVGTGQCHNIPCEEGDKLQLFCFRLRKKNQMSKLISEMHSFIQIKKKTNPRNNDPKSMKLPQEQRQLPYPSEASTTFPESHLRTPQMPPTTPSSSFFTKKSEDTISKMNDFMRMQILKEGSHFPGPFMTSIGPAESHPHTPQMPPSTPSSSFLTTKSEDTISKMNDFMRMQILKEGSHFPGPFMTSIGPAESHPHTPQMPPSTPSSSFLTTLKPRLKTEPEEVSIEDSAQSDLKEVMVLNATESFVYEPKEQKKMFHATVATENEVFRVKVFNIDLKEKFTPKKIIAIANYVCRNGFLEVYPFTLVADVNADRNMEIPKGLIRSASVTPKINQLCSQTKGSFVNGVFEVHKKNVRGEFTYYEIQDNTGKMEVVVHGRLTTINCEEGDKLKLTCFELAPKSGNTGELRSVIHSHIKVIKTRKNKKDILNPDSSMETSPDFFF
Procedure, shortened: as §1

PMEL = molecular target: T4, PMEL (human, UniProt P40967 25-661, limits assumed)
T4 construct: endogenous protein co-purified from WM115 lysate
T4 sequence (looked up): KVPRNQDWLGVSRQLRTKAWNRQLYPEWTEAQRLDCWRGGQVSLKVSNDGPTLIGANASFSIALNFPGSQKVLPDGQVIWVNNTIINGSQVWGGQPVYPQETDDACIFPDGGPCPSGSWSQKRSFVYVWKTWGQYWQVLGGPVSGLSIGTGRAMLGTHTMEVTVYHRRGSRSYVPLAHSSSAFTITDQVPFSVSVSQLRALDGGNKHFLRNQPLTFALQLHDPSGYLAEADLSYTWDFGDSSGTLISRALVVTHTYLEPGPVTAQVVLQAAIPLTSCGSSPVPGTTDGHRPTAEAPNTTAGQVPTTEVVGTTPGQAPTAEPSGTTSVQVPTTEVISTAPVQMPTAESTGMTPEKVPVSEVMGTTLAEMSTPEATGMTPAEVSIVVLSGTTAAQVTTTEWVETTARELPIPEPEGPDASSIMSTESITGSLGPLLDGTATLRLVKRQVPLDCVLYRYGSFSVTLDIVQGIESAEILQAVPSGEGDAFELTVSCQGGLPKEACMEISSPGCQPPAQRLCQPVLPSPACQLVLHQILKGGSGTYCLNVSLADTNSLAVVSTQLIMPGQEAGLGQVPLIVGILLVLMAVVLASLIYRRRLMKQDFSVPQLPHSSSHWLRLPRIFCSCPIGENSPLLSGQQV
Procedure, shortened: as §1

VIM = molecular target: T5, VIM (human, UniProt P08670 2-466)
T5 construct: endogenous protein co-purified from WM115 lysate
Procedure, shortened: as §1

Measured: binding result

T5 sequence (P08670 2-466 limits assumed): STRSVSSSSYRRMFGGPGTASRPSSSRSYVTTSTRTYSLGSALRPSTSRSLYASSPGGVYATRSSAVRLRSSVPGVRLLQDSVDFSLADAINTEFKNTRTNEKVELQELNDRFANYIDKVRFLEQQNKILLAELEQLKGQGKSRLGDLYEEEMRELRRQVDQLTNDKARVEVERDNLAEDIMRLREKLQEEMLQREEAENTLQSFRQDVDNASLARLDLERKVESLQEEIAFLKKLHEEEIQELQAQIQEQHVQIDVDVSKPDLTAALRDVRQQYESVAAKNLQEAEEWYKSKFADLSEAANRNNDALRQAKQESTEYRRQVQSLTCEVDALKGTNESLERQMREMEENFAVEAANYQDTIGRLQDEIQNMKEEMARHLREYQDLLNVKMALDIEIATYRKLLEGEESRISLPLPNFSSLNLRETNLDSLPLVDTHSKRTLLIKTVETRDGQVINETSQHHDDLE
T1 sequence (P35580 whole entry): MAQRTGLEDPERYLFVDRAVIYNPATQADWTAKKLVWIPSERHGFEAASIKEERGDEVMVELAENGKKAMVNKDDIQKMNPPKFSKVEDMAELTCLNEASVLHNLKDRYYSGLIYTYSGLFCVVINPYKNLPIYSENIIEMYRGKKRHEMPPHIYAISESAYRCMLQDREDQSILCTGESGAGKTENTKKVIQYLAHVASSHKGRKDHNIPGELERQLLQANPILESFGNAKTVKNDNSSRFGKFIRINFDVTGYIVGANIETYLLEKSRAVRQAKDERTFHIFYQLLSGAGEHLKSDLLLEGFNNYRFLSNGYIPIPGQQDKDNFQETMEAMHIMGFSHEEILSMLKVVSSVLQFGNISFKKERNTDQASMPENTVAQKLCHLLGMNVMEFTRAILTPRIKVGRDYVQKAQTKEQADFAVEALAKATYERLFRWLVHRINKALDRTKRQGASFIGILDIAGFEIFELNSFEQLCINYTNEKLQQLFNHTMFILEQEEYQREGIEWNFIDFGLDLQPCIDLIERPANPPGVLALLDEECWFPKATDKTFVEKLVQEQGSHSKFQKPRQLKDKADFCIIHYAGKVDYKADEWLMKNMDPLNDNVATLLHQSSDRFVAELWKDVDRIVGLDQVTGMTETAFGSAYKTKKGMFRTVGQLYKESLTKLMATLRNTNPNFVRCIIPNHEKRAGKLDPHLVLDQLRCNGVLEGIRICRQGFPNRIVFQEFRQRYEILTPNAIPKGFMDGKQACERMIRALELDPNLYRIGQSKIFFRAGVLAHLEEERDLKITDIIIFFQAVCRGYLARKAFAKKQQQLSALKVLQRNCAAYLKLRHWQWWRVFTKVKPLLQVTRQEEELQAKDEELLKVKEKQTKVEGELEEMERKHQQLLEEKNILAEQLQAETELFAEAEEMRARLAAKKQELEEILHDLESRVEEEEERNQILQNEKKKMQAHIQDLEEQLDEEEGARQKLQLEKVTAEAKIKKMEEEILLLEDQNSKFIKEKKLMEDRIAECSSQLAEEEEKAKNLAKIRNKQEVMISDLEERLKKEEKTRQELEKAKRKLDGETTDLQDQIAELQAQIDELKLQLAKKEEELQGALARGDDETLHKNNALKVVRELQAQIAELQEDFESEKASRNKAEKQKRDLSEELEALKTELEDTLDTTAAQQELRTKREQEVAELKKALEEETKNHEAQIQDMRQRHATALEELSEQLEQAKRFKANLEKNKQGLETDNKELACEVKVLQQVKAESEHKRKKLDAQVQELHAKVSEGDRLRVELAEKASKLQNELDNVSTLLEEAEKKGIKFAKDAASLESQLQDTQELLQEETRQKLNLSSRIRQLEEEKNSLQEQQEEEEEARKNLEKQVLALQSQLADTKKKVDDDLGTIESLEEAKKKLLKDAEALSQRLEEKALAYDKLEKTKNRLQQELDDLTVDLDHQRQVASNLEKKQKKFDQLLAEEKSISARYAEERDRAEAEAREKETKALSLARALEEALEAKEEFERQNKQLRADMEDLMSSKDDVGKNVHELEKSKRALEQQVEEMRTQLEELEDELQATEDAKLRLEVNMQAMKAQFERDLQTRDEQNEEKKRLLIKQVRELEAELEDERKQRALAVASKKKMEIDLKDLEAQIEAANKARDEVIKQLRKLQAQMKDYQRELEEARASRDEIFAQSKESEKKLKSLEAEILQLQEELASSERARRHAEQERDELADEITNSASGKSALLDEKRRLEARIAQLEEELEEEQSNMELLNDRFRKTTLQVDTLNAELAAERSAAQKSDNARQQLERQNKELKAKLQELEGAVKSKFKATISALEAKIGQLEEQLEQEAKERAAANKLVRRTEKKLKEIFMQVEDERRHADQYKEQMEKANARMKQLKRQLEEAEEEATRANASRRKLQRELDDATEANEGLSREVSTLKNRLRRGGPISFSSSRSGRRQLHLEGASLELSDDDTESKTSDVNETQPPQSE

B1: Flag-tagged SHARPIN (other, human, UniProt Q9H0F6 1-387, looked up)
chain: MAPPAGGAAAAASDLGSAAVLLAVHAAVRPLGAGPDAEAQLRRLQLSADPERPGRFRLELLGAGPGAVNLEWPLESVSYTIRGPTQHELQPPPGGPGTLSLHFLNPQEAQRWAVLVRGATVEGQNGSKSNSPPALGPEACPVSLPSPPEASTLKGPPPEADLPRSPGNLTEREELAGSLARAIAGGDEKGAAQVAAVLAQHRVALSVQLQEACFPPGPIRLQVTLEDAASAASAASSAHVALQVHPHCTVAALQEQVFSELGFPPAVQRWVIGRCLCVPERSLASYGVRQDGDPAFLYLLSAPREAPATGPSPQHPQKMDGELGRLFPPSLGLPPGPQPAASSLPSPLQPSWSCPSCTFINAPDRPGCEMCSTQRPCTWDPLAAAST
notes: also called Flag-SHARPIN; not shown: FLAG tag
binds: all assays above
